The text below walks through data of patent publication US20100151524A1 (DARWIN DISCOVERY, published 2010).

B1: BMP-4 (ligand, UniProt P12644 293-408, looked up)
chain: SPKHHSQRARKKNKNCRRHSLYVDFSDVGWNDWIVAPPGYQAFYCHGDCPFPLADHLNSTNHAIVQTLVNSVNSSIPKACCVPTELSAISMLYLDEYDKVVLKNYQEMVVEGCGCR
B2: recombinant human BMP-5 protein (R&D systems) (ligand, UniProt P22003 317-454, looked up)
chain: AANKRKNQNRNKSSSHQDSSRMSSVGDYNTSEQKQACKKHELYVSFRDLGWQDWIIAPEGYAAFYCDGECSFPLNAHMNATNHAIVQTLVHLMFPDHVPKPCCAPTKLNAISVLYFDDSSNVILKKYRNMVVRSCGCH
notes: Commercial protein
B3: BMP receptor II-FC fusion protein (Fc fusion)
chain: SQNQERLCAFKDPYQQDLGIGESRISHENGTILCSKGSTCYGLWEKSKGDINLVKQGCWSHIGDPQECHYEECVVTTTPPSIQNGTYRFCCCSTDLCNVNFTENFPPPDTTPLSPPHSFNRDET
notes: also called BMPR-II; type II receptor; not shown: Fc part and any linker
B4: BMP-6 (ligand, UniProt P22004 382-513, looked up)
chain: QQSRNRSTQSQDVARVSSASDYNSSELKTACRKHELYVSFQDLGWQDWIIAPKGYAANYCDGECSFPLNAHMNATNHAIVQTLVHLMNPEYVPKPCCAPTKLNAISVLYFDDNSNVILKKYRNMVVRACGCH

In assay [1] the target is B4. The experiment in a line: ELISA-based competition: sclerostin coated, BMP-6, DAN titrated; competitor sclerostin. For orientation: An ELISA detects its analyte on a solid surface through an enzyme-linked reagent.
The target of assay [2] is B4. Nature of the assay: ELISA-based competition: sclerostin coated, BMP-6 11 nM; competitor sclerostin.
In assay [3] the target is B4. The experiment in a line: ELISA-based competition: sclerostin coated (300 ng/well), BMP-6 11 nM, receptor-FC titrated; competitor sclerostin.
Assay [4] deals with T1, FLAG epitope-tagged Beer (human Beer, secretion signal removed, C-terminal FLAG tag, from … (human, UniProt Q9BQB4 24-213)).
T1 construct: also called FLAG-Beer; H. Beer
T1 sequence: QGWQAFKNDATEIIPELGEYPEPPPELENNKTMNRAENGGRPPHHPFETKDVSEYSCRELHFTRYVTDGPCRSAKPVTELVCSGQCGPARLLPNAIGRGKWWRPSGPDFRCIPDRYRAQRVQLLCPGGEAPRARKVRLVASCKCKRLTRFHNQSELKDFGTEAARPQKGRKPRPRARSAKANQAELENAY
The experiment in a line: anti-FLAG immunoprecipitation of FLAG-tagged Beer incubated with BMP-4, anti-BMP-4 western blot; Cerberus with BMP-4 as positive control on the left part. On the procedure:
The interaction of Beer with proteins from different phylogenetic arms of the TGF-β superfamily were studied using immunoprecipitation methods. Purified TGFβ-1, TGFβ-2, TGFβ-3, BMP-4, BMP-5, BMP-6 and GDNF were obtained from commerical sources (R&D systems; Minneapolis, Minn.). A representative protocol is as follows. Partially purified Beer was dialyzed into HEPES buffered saline (25 mM HEPES 7.5, 150 mM NaCl). Immunoprecipitations were done in 300 ul of IP buffer (150 mM NaCl, 25 mM Tris pH 7.5, 1 mM EDTA, 1.4 mM β-mercaptoethanol, 0.5% triton×100, and 10% glycerol). […] The proteins were resolved by SDS PAGE and Beer associated BMP-5 was detected by western blot using anti-BMP-5 antiserum (Research Diagnostics, Inc) (see FIG. 5).

For assay [5], the target named is T1, FLAG epitope-tagged Beer (human Beer, …). The experiment in a line: Beer ligand binding assay (FLAG-Beer captured on an anti-FLAG plate, BMP-5 titrated, ELISA detection), FIG. 6. On the procedure:
FLAG-Beer protein (20 ng) is added to 100 ul PBS/0.2% BSA and adsorbed into each well of 96 well microtiter plate previously coated with anti-FLAG monoclonal antibody (Sigma; St Louis Mo.) and blocked with 10% BSA in PBS. This is conducted at room temperature for 60 minutes. This protein solution is removed and the wells are washed to remove unbound protein. BMP-5 is added to each well in concentrations ranging from […] to 500 nM in PBS/0.2% BSA and incubated for 2 hours at room temperature. The binding solution is removed and the plate washed with three times with 200 ul volumes of PBS/0.2% BSA. BMP-5 levels are then detected using BMP-5 anti-serum via ELISA (F. M. Ausubel et al (1998) Current Protocols in Mol. Biol. Vol 2 11.2.1-11.2.22). Specific binding is calculated by subtracting non-specific binding from total binding and analyzed by the LIGAND program (Munson and Podbard, Anal. Biochem., 107, p 220-239, (1980).

Assay [6] addresses B4. Nature of the assay: ELISA-based competition: sclerostin coated, BMP-6, receptor-FC titrated; competitor sclerostin. On the procedure:
(§1) A 10-fold molar excess of the BMP receptor was sufficient to reduce binding of sclerostin to BMP-6 by approximately 50%. This competition was also observed with a BMP receptor II-FC fusion protein (IC₅₀=36 nM) and DAN (IC₅₀=43 nM).

Assay [7] has as its target T2, sclerostin (coated on the ELISA surface, Example 12) (Homo sapiens (Human), UniProt Q9BQB4 24-213).
T2 construct: also called SOST; Beer
T2 sequence: T1 sequence
The experiment in a line: ELISA, sclerostin-coated surface (300 ng/well), BMP-6 in solution. How it is done:
as §1

For orientation: IC50 means the concentration that inhibits the measured activity by half. The low end stands for higher potency, the high end for lower potency. In the assay with BMP-6 [1], DAN (competitor in Example 12) came in with an IC50 of 43 nM. On to BMP receptor IA (FC fusion construct), for which, in the assay with BMP-6 [2], the reduction of binding of sclerostin to BMP-6 at a 10-fold molar excess of receptor came out at 50%. The molecule further registered a 50% inhibitory concentration (IC50) in the assay with BMP-6 [3] of 114 nM. On to B1, for which, in assay [4], the binding result is listed as “no binding”. As usually defined, the Kd is the free concentration of one partner at which half of the binding sites on the other are occupied at equilibrium, for simple one-to-one binding. High values mean a looser complex, low ones a tighter complex. In assay [5], B2 showed a dissociation constant Kd of 15 to 30 nM. Regarding B3, the IC50 with BMP-6 [6] was 36 nM.

Molecule B4 came in with a Kd in assay [7] of 3.4 nM.
